T1: recombinant human His-tagged FcγRIIa (R&D Systems #1330-CD-050) (human, UniProt P12318 36-218, limits assumed)
T1 construct: Bought; also called CD32a; recombinant, soluble, human FcγRIIa
T1 sequence (looked up): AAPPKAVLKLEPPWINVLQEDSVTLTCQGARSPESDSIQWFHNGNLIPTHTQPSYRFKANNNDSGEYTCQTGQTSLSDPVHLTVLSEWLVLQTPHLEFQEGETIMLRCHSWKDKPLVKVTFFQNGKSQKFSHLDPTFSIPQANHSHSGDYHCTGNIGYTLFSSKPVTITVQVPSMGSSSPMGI

T2: recombinant polyhistidine tagged mouse FcγRIII (R&D Systems) (mouse, UniProt P08508 31-215)
T2 construct: Bought
T2 sequence (looked up): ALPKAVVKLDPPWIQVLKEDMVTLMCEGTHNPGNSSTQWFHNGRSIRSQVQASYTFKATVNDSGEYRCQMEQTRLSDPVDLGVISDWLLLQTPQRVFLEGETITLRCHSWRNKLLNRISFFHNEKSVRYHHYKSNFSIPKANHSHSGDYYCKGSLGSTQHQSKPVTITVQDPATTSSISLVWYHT

T3: recombinant polyhistidine tagged mouse FcγRIV (R&D Systems) (mouse, UniProt A0A0B4J1G0 21-203)
T3 construct: Bought
T3 sequence: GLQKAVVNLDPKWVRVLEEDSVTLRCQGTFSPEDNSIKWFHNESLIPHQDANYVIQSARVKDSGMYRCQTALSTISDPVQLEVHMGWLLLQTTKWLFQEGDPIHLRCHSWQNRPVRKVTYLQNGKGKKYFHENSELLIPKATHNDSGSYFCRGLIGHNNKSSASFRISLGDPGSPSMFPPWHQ


What was measured:
[1] = molecular target: T4, recombinant human His-tagged FcγRI (extracellular domain, R&D Systems #1257-FC-050) (human, UniProt P12314 16-292); assay: ELISA, His-tagged FcγRI captured on HisGrab plate
T4 construct: extracellular domain; Bought; also called CD64; recombinant, soluble, human FcγRI
T4 sequence (P12314 16-292): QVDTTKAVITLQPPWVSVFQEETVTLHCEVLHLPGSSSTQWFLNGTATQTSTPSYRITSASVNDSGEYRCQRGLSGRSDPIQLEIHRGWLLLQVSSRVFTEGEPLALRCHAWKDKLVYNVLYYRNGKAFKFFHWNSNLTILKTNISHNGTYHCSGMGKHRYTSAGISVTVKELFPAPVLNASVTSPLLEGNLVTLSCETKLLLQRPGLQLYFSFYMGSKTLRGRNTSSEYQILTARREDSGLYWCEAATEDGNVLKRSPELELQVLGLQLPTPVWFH
Procedure: FcγRI (CD64) ELISA —50 μl of a 1 μg/ml solution of recombinant human His-tagged FcγRI (extracellular domain, R&D Systems #1257-FC-050) in ELISA buffer (PBS, pH 7.4, 4 mg/ml BSA, 0.01% Tween-20) was added to each well of HisGrab 96 well plates (Pierce #15142) (Powers G., Notebook 9006, pp. 166-168, 180-181). The plate was incubated with shaking for 3 hours. The plates were washed 3× with 300 μl of wash buffer (PBS, 0.01% Tween-20) on a plate washer. Serial dilutions of the CNTO860 antibody Fc-variant samples were made in ELISA buffer and 50 μl per well of each titration were added in duplicate to the FcγRI-coated plates. The plates were incubated with shaking for 1 hour. The plates were washed 3× with 300 μl of wash buffer on a plate washer. 50 μl of a 1:10,000 dilution of HRP-labeled goat F(ab′)₂ anti-human IgG F(ab′)₂ (Jackson Immunoresearch # 109-036-097) in ELISA buffer was added to each well. The plates were incubated with shaking for 30 minutes. The plates were washed 3× with 300 μl of wash buffer on the plate washer. 50 μl per well TMB substrate (RDI #RDI-TMBSU-1L) was added to each well and developed for 5 minutes. The reaction was stopped by adding 100 μl 0.2 N sulfuric acid. The plates were read at OD450 on an Envision plate reader.

[2] = molecular target: T1, recombinant human His-tagged FcγRIIa …; assay: AlphaScreen, His-tagged FcγRIIa on nickel acceptor beads
Procedure: FcγRIIa (CD32a) AlphaScreen—Nickel acceptor beads (Perkin Elmer #6760619C) were diluted 1:50 in assay buffer (PBS, pH 7.4, 4 mg/ml BSA, 0.01% Tween-20), and 27.5 μl were added to each well of a Nunc V-bottom polypropylene plate (VWR # 62409-108) (Powers G., Notebook 9006, pp. 169-175, 182-185). A 2.0 μg/ml solution of recombinant human His-tagged FcγRIIa (R&D Systems #1330-CD-050) was prepared in assay buffer and 27.5 μl added to each well of a separate Nunc V bottom polypropylene plate. Titrations of test Abs were prepared in the Nunc V bottom polypropylene plate starting at 30 μg/ml. A 2 μg/ml solution of biotinylated goat F(ab′)₂ anti-human IgG F(ab′)₂ (Jackson Immunoresearch #109-066-097) was prepared in assay buffer and 27.5 μl added to each well of another Nunc V bottom polypropylene plate. A 1:50 dilution of streptavidin donor beads (PerkinElmer # 6760002) was prepared in assay buffer and 27.5 μl added to each well of another Nunc V bottom polypropylene plate. A volume of 5 μl of each reagent was added to the corresponding quadrants of a low-volume, non-binding white 384-well plate (Corning # 3673) in the following order: acceptor beads, FcγRIIa, test Ab, biotinylated anti-human IgG F(ab′)₂, and streptavidin donor beads. The plates were incubated for 30 minutes with shaking and the O.D.s determined using an Envision plate reader.

[3] = molecular target: T2, recombinant polyhistidine tagged mouse …; assay: ELISA, His-tagged mouse receptor captured on copper-coated plate
[4] = molecular target: T3, recombinant polyhistidine tagged mouse …; assay: as above
[5] = molecular target: FcγRIIIa on NK cells of human PBMC (human, UniProt P08637 17-254); assay: cell-based or functional assay
Sequence of FcγRIIIa on NK cells of human PBMC (P08637 17-254): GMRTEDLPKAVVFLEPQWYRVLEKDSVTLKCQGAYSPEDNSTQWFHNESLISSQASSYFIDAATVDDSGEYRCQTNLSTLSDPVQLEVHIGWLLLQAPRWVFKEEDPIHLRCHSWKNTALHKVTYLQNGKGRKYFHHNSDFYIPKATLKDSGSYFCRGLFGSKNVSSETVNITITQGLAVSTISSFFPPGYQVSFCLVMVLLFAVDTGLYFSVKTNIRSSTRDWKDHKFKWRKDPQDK

| Binder | concentration (ng/ml) required for an O.D. value of 1.0 [1] | concentration (ng/ml) required for a set O.D. signal [2] | ECOD1 (concentration required for an O.D. value of 1.0) [3] | ECOD1 (concentration required for an O.D. value of 1.0) [4] | EC25 (ng/ml), ADCC of HCT116 cells by human PBMC [5] |
| --- | --- | --- | --- | --- | --- |
| CHO-CNTO 860 WT (antibody, human IgG1, kappa, N-linked glycan at heavy chain Asn297 (CHO-type, highly fucosylated); not carried by the letters, Anti-human tissue factor human IgG1/kappa; transiently expressed in CHO cells (plasmids p4145/p4146; CHO Abs typically 95% fucosylated), purified by protein A; also called CNTO 860 WT from CHO cells; WT (CHO cell-derived); copies: 2 + 2) heavy: not shown light: DIQMTQSPSSLSASVGDRVTITCKASQDIRKYLNWYQQKPGKAPKLLIYYATSLADGVPSRFSGSGSGTDYTFTISSLQPEDIATYYCLQHGESPYTFGQGTKLEITRTVAAPSVFIFPPSDEQLKSGTASVVCLLNNFYPREAKVQWKVDNALQSGNSQESVTEQDSKDSTYSLSSTLTLSKADYEKHKVYACEVTHQGLSSPVTKSFNRGEC | 480 ng/mL | 97 ng/mL | 4000 ng/mL | 60 ng/mL |  |
| YB2/0-CNTO 860 WT (antibody, human IgG1, kappa, Heavy chain N297 carries the YB2/0-type N-linked glycan (40-60% fucosylated); not carried by the letters., Anti-human tissue factor human IgG1/kappa; stably expressed in rat YB2/0 cells (p2401/p2402; YB2/0 Abs typically 40-60% fucosylated), purified by protein A; also called WT (YB2/0 cell-derived); WT from YB2/0 cells; copies: 2 + 2) heavy: not shown light: DIQMTQSPSSLSASVGDRVTITCKASQDIRKYLNWYQQKPGKAPKLLIYYATSLADGVPSRFSGSGSGTDYTFTISSLQPEDIATYYCLQHGESPYTFGQGTKLEITRTVAAPSVFIFPPSDEQLKSGTASVVCLLNNFYPREAKVQWKVDNALQSGNSQESVTEQDSKDSTYSLSSTLTLSKADYEKHKVYACEVTHQGLSSPVTKSFNRGEC | 420 ng/mL | 63 ng/mL | 4000 ng/mL | 30 ng/mL |  |
| CHO-CNTO 860 A330I (antibody, IgG1, N-linked glycan at Asn297 of the heavy chain (CHO-type, highly fucosylated); not carried by the letters, IgG1/kappa Fc variant; EU numbering; also called A330I (CHO cell-derived); copies: 2 + 2) heavy: not shown light: DIQMTQSPSSLSASVGDRVTITCKASQDIRKYLNWYQQKPGKAPKLLIYYATSLADGVPSRFSGSGSGTDYTFTISSLQPEDIATYYCLQHGESPYTFGQGTKLEITRTVAAPSVFIFPPSDEQLKSGTASVVCLLNNFYPREAKVQWKVDNALQSGNSQESVTEQDSKDSTYSLSSTLTLSKADYEKHKVYACEVTHQGLSSPVTKSFNRGEC | 750 ng/mL | 2250 ng/mL | 12000 ng/mL | 130 ng/mL |  |
| YB2/0-CNTO 860 A330I/I332E (antibody, human IgG1, kappa, N-linked glycan at heavy chain Asn297 (YB2/0-type, low fucose); not carried by the letters, IgG1/kappa Fc variant; stably expressed in YB2/0 cells (p4178/p2402); EU numbering; also called A330I/I332E (YB2/0 cell-derived); A330I/I332E from YB2/0 cells; copies: 2 + 2) heavy: not shown light: DIQMTQSPSSLSASVGDRVTITCKASQDIRKYLNWYQQKPGKAPKLLIYYATSLADGVPSRFSGSGSGTDYTFTISSLQPEDIATYYCLQHGESPYTFGQGTKLEITRTVAAPSVFIFPPSDEQLKSGTASVVCLLNNFYPREAKVQWKVDNALQSGNSQESVTEQDSKDSTYSLSSTLTLSKADYEKHKVYACEVTHQGLSSPVTKSFNRGEC | 310 ng/mL | 1500 ng/mL | 3000 ng/mL | 7 ng/mL | 0.15 ng/mL |
| YB2/0-CNTO 860 A330I (antibody, IgG1, N-linked glycan at heavy chain Asn297 (YB2/0-type, low fucose); not carried by the letters, IgG1/kappa Fc variant; stably expressed in YB2/0 cells (p4177/p2402); EU numbering; also called A330I (YB2/0 cell-derived); A330I mutant expressed in YB2/0 cells; copies: 2 + 2) heavy: not shown light: DIQMTQSPSSLSASVGDRVTITCKASQDIRKYLNWYQQKPGKAPKLLIYYATSLADGVPSRFSGSGSGTDYTFTISSLQPEDIATYYCLQHGESPYTFGQGTKLEITRTVAAPSVFIFPPSDEQLKSGTASVVCLLNNFYPREAKVQWKVDNALQSGNSQESVTEQDSKDSTYSLSSTLTLSKADYEKHKVYACEVTHQGLSSPVTKSFNRGEC | 570 ng/mL | 450 ng/mL | 8000 ng/mL | 15 ng/mL | 0.7 ng/mL |
| CHO-CNTO 860 I332E/A330I (antibody, human IgG1, kappa, Heavy chain N297 carries the CHO-type N-linked glycan (about 95% fucosylated); not carried by the letters., IgG1/kappa Fc variant; transiently expressed in CHO cells (p4185/p4146); EU numbering; also called A330I/I332E (CHO cell-derived); A330I/I332E variant from CHO cells; copies: 2 + 2) heavy: not shown light: DIQMTQSPSSLSASVGDRVTITCKASQDIRKYLNWYQQKPGKAPKLLIYYATSLADGVPSRFSGSGSGTDYTFTISSLQPEDIATYYCLQHGESPYTFGQGTKLEITRTVAAPSVFIFPPSDEQLKSGTASVVCLLNNFYPREAKVQWKVDNALQSGNSQESVTEQDSKDSTYSLSSTLTLSKADYEKHKVYACEVTHQGLSSPVTKSFNRGEC | 420 ng/mL | 900 ng/mL | 800 ng/mL | 18 ng/mL | 1.2 ng/mL |
| CHO-CNTO 860 A330Y (antibody, human IgG1, kappa, N-linked glycan at Asn297 of the heavy chain (CHO-type, highly fucosylated); not carried by the letters, IgG1/kappa Fc variant; transiently expressed in CHO cells (p4183/p4146); EU numbering; also called A330Y (CHO cell-derived); copies: 2 + 2) heavy: not shown light: DIQMTQSPSSLSASVGDRVTITCKASQDIRKYLNWYQQKPGKAPKLLIYYATSLADGVPSRFSGSGSGTDYTFTISSLQPEDIATYYCLQHGESPYTFGQGTKLEITRTVAAPSVFIFPPSDEQLKSGTASVVCLLNNFYPREAKVQWKVDNALQSGNSQESVTEQDSKDSTYSLSSTLTLSKADYEKHKVYACEVTHQGLSSPVTKSFNRGEC | 420 ng/mL | 142 ng/mL | 4000 ng/mL | 100 ng/mL | 4 ng/mL |
| CHO-CNTO 860 I332E (antibody, N-linked glycan at Asn297 of the heavy chain (CHO-type, highly fucosylated); not carried by the letters, IgG1/kappa Fc variant; transiently expressed in CHO cells (p4157/p4146); also called I332E (CHO cell-derived); I332E from CHO cells; copies: 2 + 2) heavy: not shown light: DIQMTQSPSSLSASVGDRVTITCKASQDIRKYLNWYQQKPGKAPKLLIYYATSLADGVPSRFSGSGSGTDYTFTISSLQPEDIATYYCLQHGESPYTFGQGTKLEITRTVAAPSVFIFPPSDEQLKSGTASVVCLLNNFYPREAKVQWKVDNALQSGNSQESVTEQDSKDSTYSLSSTLTLSKADYEKHKVYACEVTHQGLSSPVTKSFNRGEC | 300 ng/mL | 76 ng/mL | 1600 ng/mL | 13 ng/mL | 0.75 ng/mL |
| CHO-CNTO 860 I332E/S239D (antibody, human IgG1, kappa, Heavy chain N297 carries the CHO-type N-linked glycan (about 95% fucosylated); not carried by the letters., IgG1/kappa Fc variant; transiently expressed in CHO cells (p4186/p4146); EU numbering; also called S239D/I332E (CHO cell-derived); copies: 2 + 2) heavy: not shown light: DIQMTQSPSSLSASVGDRVTITCKASQDIRKYLNWYQQKPGKAPKLLIYYATSLADGVPSRFSGSGSGTDYTFTISSLQPEDIATYYCLQHGESPYTFGQGTKLEITRTVAAPSVFIFPPSDEQLKSGTASVVCLLNNFYPREAKVQWKVDNALQSGNSQESVTEQDSKDSTYSLSSTLTLSKADYEKHKVYACEVTHQGLSSPVTKSFNRGEC | 480 ng/mL | 75 ng/mL | 1100 ng/mL | 11 ng/mL | 0.7 ng/mL |

Reference: US20080311034A1 (published 2008)
